To fix the notation:
B1: hCdc5 putative nuclear localization domain (amino acids 205-358), His6 fusion (other)
chain: KRGVDYNAEIPFEKKPALGFYDTSEENYQALDADFRKLRQQDLDGELRSEKEGRDRKKDKQHLKRKKESDLPSAILQTSGVSEFTKKRSKLVLPAPQISDAELQEVVKVGQASEIARQTAEESGITNSASSTLLSEYNVTNNSVALRTPRTPAS
notes: Expressed and purified in E. coli as a His6 fusion; not shown: His6 tag
B2: hCdc5 central domain (amino acids 365-501), His6 fusion (other)
chain: EAQNLMALTNVDTPLKGGLNTPLHESDFSGVTPQRQVVQTPNTVLSTPFRTPSNGAEGLTPRSGTTPKPVINSTPGRTPLRDKLNINPEDGMADYSDPSYVKQMERESREHLRLGLLGLPAPKNDFEIVLPENAEKE
notes: as for B1
B3: hCdc5 carboxyl terminal domain (amino acids 491-802), His6 fusion (other)
chain: EIVLPENAEKELEEREIDDTYIEDAADVDARKQAIRDAERVKEMKRMHKAVQKDLPRPSEVNTEILRPLNVEPPLTDLQKSEELIKKEMITMLHYDLLHHPYEPSGNKKGKTVGFGTNNSEHITYLEHNPYEKFSKEELKKAQDVLVQEMEVVKQGMSHGELSSEAYNQVWEECYSQVLYLPGQSRYTRANLASKKDRIESLEKRLEINRGHMTTEAKRAAKMEKKMKILLGGYQSRAMGLMKQLNDLWDQIEQAHLELRTFEELKKHEDSAIPRRLECLKEDVQRQQEREKELQHRYADLLLEKETLKSKF
notes: as for B1
B4: hCdc5 DNA binding domain (amino acids 1-120), His6 fusion (other)
chain: MPRIMIKGGVWRNTEDEILKAAVMKYGKNQWSRIASLLHRKSAKQCKARWYEWLDPSIKKTEWSREEEEKLLHLAKLMPTQWRTIAPIIGRTAAQCLEHYEFLLDKAAQRDNEEETTDDP
notes: Expressed and purified in E. coli as a His6 fusion; also called helix-turn-helix domain; not shown: His6 tag

Data set [1] deals with the molecule itself. The experiment in a line: glutaraldehyde cross-linking of purified His6 fusion, SDS-PAGE and anti-His immunoblot.
Data set [2] deals with the molecule itself. Briefly: glutaraldehyde cross-linking of purified His6 fusion.
Data set [3] concerns the target B1. Briefly: glutaraldehyde cross-linking of purified His6 fusions.
Data set [4] deals with B4. Described as above.
Data set [5] has as its target B2. Described as above.

The values below come from patent US20020127702A1 (University of California, published 2002).

Regarding B1, the binding result in data set [1] is on record as “binds”.
B2: the binding result in data set [2] and in data set [3] was “no binding” each time.
B3: the binding result in data set [2], in data set [3], in data set [4] and in data set [5] was “no binding” throughout.
As to B4, the binding result in data set [1] was “binds”; in data set [3], “no binding”; in data set [5], “no binding”.
